The supplement of paper PMC9112550, “Optimization of the antimicrobial peptide Bac7 by deep mutational scanning” (BMC Biology, 2022)

Test system: Escherichia coli TOP10
Experiment: shrunken log2 fold change of peptide-encoding DNA abundance (4.5 h post-induction vs induction); higher = less antimicrobial activity (less host growth inhibition)
Settings: time post-induction: 4.5 h; library: site-saturation at positions 5, 18, 19, 20
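Also: peptides expressed intracellularly from a pBAD plasmid library in pooled LB shake-flask culture, induced with 0.3% L-arabinose, DNA abundance read by NGS, three biological replicates, DESeq2 with apeglm shrinkage.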

Sequence: RRIRDRPPRLPRPRPRPPGAPRP
- shrunken log2 fold change: 0.564

Sequence: RRIRFRPPRLPRPRPRPQHGPRP
- shrunken log2 fold change: -0.126

Sequence: RRIRQRPPRLPRPRPRPLRVPRP
- shrunken log2 fold change: 0.298

Sequence: RRIRNRPPRLPRPRPRPTETPRP
- shrunken log2 fold change: -0.00947

Sequence: RRIRARPPRLPRPRPRPYVCPRP
- shrunken log2 fold change: -0.255

Sequence: RRIRYRPPRLPRPRPRPNGNPRP
- shrunken log2 fold change: -0.561

Sequence: RRIRARPPRLPRPRPRPKFQPRP
- shrunken log2 fold change: 0.328

Sequence: RRIRQRPPRLPRPRPRPEGKPRP
- shrunken log2 fold change: 0.0352

Sequence: RRIRGRPPRLPRPRPRPTYCPRP
- shrunken log2 fold change: 0.309

Sequence: RRIRIRPPRLPRPRPRPMHPPRP
- shrunken log2 fold change: 0.00185

Sequence: RRIRCRPPRLPRPRPRPNCRPRP
- shrunken log2 fold change: -0.00263

Sequence: RRIRMRPPRLPRPRPRPNKTPRP
- shrunken log2 fold change: -0.0156

Sequence: RRIRVRPPRLPRPRPRPSKPPRP
- shrunken log2 fold change: -0.242

Sequence: RRIRARPPRLPRPRPRPRYMPRP
- shrunken log2 fold change: -0.365

Sequence: RRIRARPPRLPRPRPRPCYHPRP
- shrunken log2 fold change: -0.0657

Sequence: RRIRSRPPRLPRPRPRPHHVPRP
- shrunken log2 fold change: -0.243

Sequence: RRIRIRPPRLPRPRPRPCMSPRP
- shrunken log2 fold change: -0.347

Sequence: RRIRWRPPRLPRPRPRPAQTPRP
- shrunken log2 fold change: 0.476

Sequence: RRIRGRPPRLPRPRPRPAHRPRP
- shrunken log2 fold change: 0.224

Sequence: RRIRGRPPRLPRPRPRPKSLPRP
- shrunken log2 fold change: 0.413

Sequence: RRIRCRPPRLPRPRPRPINLPRP
- shrunken log2 fold change: -0.355

Sequence: RRIRPRPPRLPRPRPRPIAAPRP
- shrunken log2 fold change: 0.621

Sequence: RRIRDRPPRLPRPRPRPGTCPRP
- shrunken log2 fold change: -0.0724

Sequence: RRIRHRPPRLPRPRPRPRDDPRP
- shrunken log2 fold change: -0.0505

Sequence: RRIRLRPPRLPRPRPRPEHKPRP
- shrunken log2 fold change: -0.0822

Sequence: RRIRVRPPRLPRPRPRPWHRPRP
- shrunken log2 fold change: -0.145

Sequence: RRIRLRPPRLPRPRPRPGVIPRP
- shrunken log2 fold change: -0.298

Sequence: RRIRARPPRLPRPRPRPNLTPRP
- shrunken log2 fold change: 0.287

Sequence: RRIRIRPPRLPRPRPRPWSFPRP
- shrunken log2 fold change: -0.0245

Sequence: RRIRLRPPRLPRPRPRPLAFPRP
- shrunken log2 fold change: -0.092

Sequence: RRIRQRPPRLPRPRPRPPKVPRP
- shrunken log2 fold change: 2.65e-05

Sequence: RRIRPRPPRLPRPRPRPVHAPRP
- shrunken log2 fold change: 0.441

Sequence: RRIRQRPPRLPRPRPRPYQKPRP
- shrunken log2 fold change: -0.0335

Sequence: RRIRYRPPRLPRPRPRPDMEPRP
- shrunken log2 fold change: -0.0135

Sequence: RRIRSRPPRLPRPRPRPRFVPRP
- shrunken log2 fold change: 0.129

Sequence: RRIRMRPPRLPRPRPRPSMVPRP
- shrunken log2 fold change: 0.0557

Sequence: RRIRHRPPRLPRPRPRPGRRPRP
- shrunken log2 fold change: 0.525

Sequence: RRIRVRPPRLPRPRPRPVPSPRP
- shrunken log2 fold change: -0.0143

Sequence: RRIRVRPPRLPRPRPRPDMDPRP
- shrunken log2 fold change: -0.154

Sequence: RRIRLRPPRLPRPRPRPANSPRP
- shrunken log2 fold change: -0.202

Sequence: RRIRYRPPRLPRPRPRPIQPPRP
- shrunken log2 fold change: 0.00143

Sequence: RRIRYRPPRLPRPRPRPVAMPRP
- shrunken log2 fold change: -0.464

Sequence: RRIRERPPRLPRPRPRPPFAPRP
- shrunken log2 fold change: 0.403

Sequence: RRIRFRPPRLPRPRPRPPESPRP
- shrunken log2 fold change: 1.13

Sequence: RRIRCRPPRLPRPRPRPAQYPRP
- shrunken log2 fold change: -0.467

Sequence: RRIRERPPRLPRPRPRPVSWPRP
- shrunken log2 fold change: 0.368

Sequence: RRIRVRPPRLPRPRPRPGNMPRP
- shrunken log2 fold change: 0.151

Sequence: RRIRDRPPRLPRPRPRPNHWPRP
- shrunken log2 fold change: 0.0735

Sequence: RRIRARPPRLPRPRPRPEVPPRP
- shrunken log2 fold change: 0.162

Sequence: RRIRKRPPRLPRPRPRPALVPRP
- shrunken log2 fold change: 0.623

Sequence: RRIRVRPPRLPRPRPRPSIDPRP
- shrunken log2 fold change: -0.455

Sequence: RRIRGRPPRLPRPRPRPFMYPRP
- shrunken log2 fold change: 0.345

Sequence: RRIRKRPPRLPRPRPRPMMQPRP
- shrunken log2 fold change: 0.405

Sequence: RRIRNRPPRLPRPRPRPCDLPRP
- shrunken log2 fold change: -0.0345

Sequence: RRIRYRPPRLPRPRPRPIAVPRP
- shrunken log2 fold change: -0.321

Sequence: RRIRPRPPRLPRPRPRPLIKPRP
- shrunken log2 fold change: -0.268

Sequence: RRIRMRPPRLPRPRPRPKWPPRP
- shrunken log2 fold change: 1.18

Sequence: RRIRVRPPRLPRPRPRPCHMPRP
- shrunken log2 fold change: -0.19

Sequence: RRIRHRPPRLPRPRPRPGAFPRP
- shrunken log2 fold change: 0.175

Sequence: RRIRNRPPRLPRPRPRPMRDPRP
- shrunken log2 fold change: -0.00169

Sequence: RRIRARPPRLPRPRPRPIPNPRP
- shrunken log2 fold change: -0.069

Sequence: RRIRMRPPRLPRPRPRPTNDPRP
- shrunken log2 fold change: 0.231

Sequence: RRIRYRPPRLPRPRPRPVMKPRP
- shrunken log2 fold change: -0.131

Sequence: RRIRDRPPRLPRPRPRPMSWPRP
- shrunken log2 fold change: 0.262

Sequence: RRIRPRPPRLPRPRPRPIKAPRP
- shrunken log2 fold change: -0.00863

Sequence: RRIRYRPPRLPRPRPRPAHDPRP
- shrunken log2 fold change: -1.14

Sequence: RRIRFRPPRLPRPRPRPTTMPRP
- shrunken log2 fold change: -0.0267

Sequence: RRIRQRPPRLPRPRPRPAVIPRP
- shrunken log2 fold change: 0.135

Sequence: RRIRWRPPRLPRPRPRPDQNPRP
- shrunken log2 fold change: -0.0342

Sequence: RRIRKRPPRLPRPRPRPTAQPRP
- shrunken log2 fold change: 1.88

Sequence: RRIRTRPPRLPRPRPRPMRSPRP
- shrunken log2 fold change: 0.232

Sequence: RRIRVRPPRLPRPRPRPPVWPRP
- shrunken log2 fold change: 0.312

Sequence: RRIRNRPPRLPRPRPRPWMWPRP
- shrunken log2 fold change: -0.0133

Sequence: RRIRTRPPRLPRPRPRPHSWPRP
- shrunken log2 fold change: -0.0571

Sequence: RRIRCRPPRLPRPRPRPCKGPRP
- shrunken log2 fold change: 0.035

Sequence: RRIRVRPPRLPRPRPRPAGYPRP
- shrunken log2 fold change: -0.0144

Sequence: RRIRPRPPRLPRPRPRPICKPRP
- shrunken log2 fold change: -0.081

Sequence: RRIRRRPPRLPRPRPRPNIFPRP
- shrunken log2 fold change: -0.0516

Sequence: RRIRERPPRLPRPRPRPMEWPRP
- shrunken log2 fold change: 0.0338

Sequence: RRIRYRPPRLPRPRPRPNCCPRP
- shrunken log2 fold change: -0.518

Sequence: RRIRSRPPRLPRPRPRPCMGPRP
- shrunken log2 fold change: -0.403

Sequence: RRIRGRPPRLPRPRPRPPRDPRP
- shrunken log2 fold change: 1.12

Sequence: RRIRPRPPRLPRPRPRPFNHPRP
- shrunken log2 fold change: -0.304

Sequence: RRIRKRPPRLPRPRPRPGCRPRP
- shrunken log2 fold change: 0.654

Sequence: RRIRRRPPRLPRPRPRPREQPRP
- shrunken log2 fold change: 0.803

Sequence: RRIRLRPPRLPRPRPRPQWCPRP
- shrunken log2 fold change: -0.282

Sequence: RRIRRRPPRLPRPRPRPLARPRP
- shrunken log2 fold change: 0.153

Sequence: RRIRQRPPRLPRPRPRPNAMPRP
- shrunken log2 fold change: -0.226

Sequence: RRIRHRPPRLPRPRPRPYAKPRP
- shrunken log2 fold change: -0.0134

Sequence: RRIRDRPPRLPRPRPRPVRAPRP
- shrunken log2 fold change: 0.325

Sequence: RRIRGRPPRLPRPRPRPAYQPRP
- shrunken log2 fold change: 0.254

Sequence: RRIRQRPPRLPRPRPRPFSLPRP
- shrunken log2 fold change: 0.14

Sequence: RRIRVRPPRLPRPRPRPFYGPRP
- shrunken log2 fold change: -0.127

Sequence: RRIRIRPPRLPRPRPRPFWFPRP
- shrunken log2 fold change: -0.684

Sequence: RRIRDRPPRLPRPRPRPRGRPRP
- shrunken log2 fold change: 0.614

Sequence: RRIRRRPPRLPRPRPRPPRHPRP
- shrunken log2 fold change: 1.08

Sequence: RRIRERPPRLPRPRPRPVGCPRP
- shrunken log2 fold change: 0.168

Sequence: RRIRIRPPRLPRPRPRPTWWPRP
- shrunken log2 fold change: 0.0347

Sequence: RRIRSRPPRLPRPRPRPMHPPRP
- shrunken log2 fold change: -0.0546

Sequence: RRIRPRPPRLPRPRPRPNDYPRP
- shrunken log2 fold change: -0.307

Sequence: RRIRLRPPRLPRPRPRPINVPRP
- shrunken log2 fold change: -0.54

Sequence: RRIRMRPPRLPRPRPRPSMMPRP
- shrunken log2 fold change: 0.0163

Sequence: RRIRSRPPRLPRPRPRPKIYPRP
- shrunken log2 fold change: -0.265

Sequence: RRIRARPPRLPRPRPRPCCRPRP
- shrunken log2 fold change: 0.406

Sequence: RRIRHRPPRLPRPRPRPLLTPRP
- shrunken log2 fold change: -0.338

Sequence: RRIRARPPRLPRPRPRPQMCPRP
- shrunken log2 fold change: 0.00812

Sequence: RRIRARPPRLPRPRPRPEHPPRP
- shrunken log2 fold change: 0.652

Sequence: RRIRFRPPRLPRPRPRPCPAPRP
- shrunken log2 fold change: 1.36

Sequence: RRIRYRPPRLPRPRPRPNSRPRP
- shrunken log2 fold change: -0.156

Sequence: RRIRNRPPRLPRPRPRPQYDPRP
- shrunken log2 fold change: -0.0449

Sequence: RRIRQRPPRLPRPRPRPPKDPRP
- shrunken log2 fold change: 0.0238

Sequence: RRIRLRPPRLPRPRPRPCGWPRP
- shrunken log2 fold change: 0.124

Sequence: RRIRKRPPRLPRPRPRPGIQPRP
- shrunken log2 fold change: 0.0822

Sequence: RRIRYRPPRLPRPRPRPKPNPRP
- shrunken log2 fold change: -0.158

Sequence: RRIRLRPPRLPRPRPRPPHPPRP
- shrunken log2 fold change: 0.404

Sequence: RRIRSRPPRLPRPRPRPYNPPRP
- shrunken log2 fold change: -0.953

Sequence: RRIRPRPPRLPRPRPRPTPYPRP
- shrunken log2 fold change: -0.0196

Sequence: RRIRIRPPRLPRPRPRPKYIPRP
- shrunken log2 fold change: -0.992

Sequence: RRIRCRPPRLPRPRPRPCGYPRP
- shrunken log2 fold change: -0.144

Sequence: RRIRGRPPRLPRPRPRPISPPRP
- shrunken log2 fold change: -0.0176

Sequence: RRIRCRPPRLPRPRPRPGHAPRP
- shrunken log2 fold change: 0.297

Sequence: RRIRWRPPRLPRPRPRPCPKPRP
- shrunken log2 fold change: -0.0941

Sequence: RRIRKRPPRLPRPRPRPEGHPRP
- shrunken log2 fold change: 0.0594

Sequence: RRIRPRPPRLPRPRPRPYSGPRP
- shrunken log2 fold change: -0.524

Sequence: RRIRRRPPRLPRPRPRPQKNPRP
- shrunken log2 fold change: 0.204
